Test results as given in the DeepSol protein solubility set.

Test: soluble on expression in E. coli; label from the status in PepcDB or PDB records

Sequence | soluble on expression in E. coli
MSLKALVLTGTKQFEMQDVTTPTVKDDEVLVNTAYAGICGTDRALYAGLPGSADAVPPIVLGHENSGIVAAIGRNVTNVKVGDRVTVDPNIYCGECEYCRTDRPELCDNLSAVGVTRDGGLEESFTAPASVVYPIPDSVSLKAAATVEPISCAVHGVKLLDLTPYQKALVIGDGFMGQLFVQLLQAYGVHQVDFAGIVDEKLAFNKEKFGVTNTYNTTRDSIPADYDVVIEAVGLPQTQEQAVEATKKGAQVLMFGVGKPNQTFSMNTYEVYQKQLKIQGAFINPYAFEDSIALLASGQLDVESLISHEVSLEQVEDVLNGKVEHVSKAVVKVSEGHHHHHH | soluble
MHTPVTIIGAGLGGLTLARVLHVHAIPVTVYEADSSPSARAQGGLLDIHDYNGQLAVEAAGLTDEFRAIVLEGRQALRVLDPDGTVRLDRADDGTGGRPEVQRGDLRQILLDSLPAGTVRWGHKVSRARPLGDGRHEVTFADGGTVVTRLLVGADGAWSRVRPLLSSATPEYVGKSVVETYLFDAGTRHPVAAKTVGGGMLIAPAPGKEIFAHREKDDTLHAYVGLSRPLDWFAGIDFTDGAAATARIAREFDGWATELTALITDTDVAPALRALHALPAGHRWERVPGVTLLGDAAHLAAPNGEGANLAMLDGAELGTALAAHPGDVEAALAEYERAMFPRSAEAAGDDMIGMDSPDNTAQGLIDLITENGGLEHHHHHH | soluble
KHSCIAVIDAGSTGSRLHIYSYDTDDTNTPIHIEEIWNKKIKPGFASIQPNSVTIDAYLTMLLADAPIHNIPVYFYATAGMRLLPQSQQKKYYDELEYWFRQQSQWQLVEAKTITGNDEALFDWLAVNYKLDTLKSVQNKSVGVMDMGGASVQIVFPMPKNAEISKHNQVELNIYGQNINLYVHSFLGLGQTEMSHQFLNSPSCFANDYPLPDGESGQGNAPSCKEEVTSLMNSVHKVNQQIQPLLALNPVNEWYSIGGISNLASSQLFHFENSELTNQSLLQQGDNQICHQQWDILNGQYPDDEYLYQYCLLSSYYYALMVDGYGINPNQTIHYIPPEQNLDWTIGVVLHRA | soluble
MSLSIQRILFPTDFSDGARRAFPQAAHLADWHDAGLHILNVTGRHRHDHEETTANFPIATDTLTKWLRRPEKSVRGANWPDLEALPITQEQVESAEPAERILAYAEDEAIDLIVMGTHGRRGVDRMLFGSVTEEVVRKAPCPTLTVRADADVAPDQAVRRVLAPVDFSDASRSAVRHAKEIALTYGAEIDLLHVVEEPFYPPAYGLGETGFPTDKVIGSVEDELADLARSEVGYEHVMIEARTGEPSREILNYIDENEVDLTVIASHGRTGLDRMLIGSVAERVVRQSPTPVFVAKPDRAALVSSDAAEGHHHHHH | not soluble
MAEVKGMTVFNTEEVNTKKQPMFFGKPLGVQRYDNFKYPSFENLTKQQLGYFWRPEEVSLQKDRGDYQTLRPEQKHIYTSNLKYQIMLDSVQGRAPGMAFLPYCSLPELEACMEVWSFMEMIHSRSYTYVIKNVYADPSEVFDKILSDDRILSRAASVTESYDDFINEAQGWGQSNLWRDMDKSLDTSLPVLEMKEVKRKLYRAVTNVNILEGIRFYVSFACSFAFGELKVMEGSAKIISLIARDENQHLAITQNILNNWRKGDDPEMVEIMKEEEQWTYQMFEKCVNEEKMWAEYLFKDGSMIGLNDKLLHQYVEWVANRRMRSIGMKPVYDIAAKNNPLPWTEHWISSKGLQVAPQETEVESYIVGGIKQDVKKDTFAGFKL | soluble
MKRLLLYVHFNKYNRVSSHVVYQLTQMRSLFSKVIFISNSQVADADVKMLREKHLIDDFIQRQNSGFDFAAWRDGMVFVGFDELVTYDSVTTMNDTCFGPLWEMYSIYQEFETKTTVDFWGLTNNRATKSFREHIQSYFISFKASVLRSTAFRDFWENIKEYQDVQKVIDQYETKVTTTLLDAGFQYDVVFDTTKEDASHMLHADFSYYNPTAILNHRVPFIKVKAIDNNQHITPYLLNDIQKNSTYPIDLIVSHMSEINYPDFSYLLGHKYVKKRERVDLKNQKAAVHLHVFYVDLLEEFLTAFKQFHFSYDLFITTDSDDKKAEIEEILSANSQEAQVFVTGNIGRDVLPMLKLKNYLSTYDFVGHFHTKKSKEADFWAGQSWREELIDMLVKPADNILAQLQQNPKIGLVIADMPTFFRYNKIVDAWNEHLIAPEMNTLWQKMGMTKKIDFNAFHTFVMSYGTFVWFKYDALKPLFDLNLTDDDVPEEPLPQNSILHAIERLLIYIAWNEHYDFRISLEHHHHHH | not soluble
MNGTRNWCTLVDVHPEDRAAGSVDILRLTLQGEPTGDELEHIAQKAGRKTYAMVSSHSAGHSLASELVESHDGHEEIIKVYLKGRSGDKMIHEKNINQLKSEVQYIQEARNCLQKLREDISSKLDRNLGDSLHRQEIQVVLEKPNGFSQSPTALYSSPPEVDTCINEDVESLRKTVQDLLAKLQEAKRQHQSDCVAFEVTLSRYQREAEQSNVALQREEDRVEQKEAEVGELQRRLLGMETEHQALLAKVREGEVALEELRSNNADCQAEREKAATLEKEVAGLREKIHHLDDMLKSQQRKVRQMIEQLQNSKAVIQSKDATIQELKEKIAYLEAENLEMHDRMEHLIEKQISHGNFSTQARAKTENPGSIRISKPPSPKPMPVIRVVET | soluble
MSDESANPSCISHLSIGTNDFPRARAFYDAVMAALGCKVILEYPGAVAYGKLYPEFWVQAPIDGRPASVGNGSHVGFFADSKAQVDAFHAAALAAGARDEGAPGPRPLYGEPYYGCFIRDLDGHKVEASYWDMSQGFDAHDHAH | not soluble
MSLTNSSNLIDGIEVYVLNNPKDVKPHWVSHFIVPTANELLIKIKTKNGNSGFGVATSYTDIKPIIKPFTNGLQDLVIGEDPFCPEKIYDKIFKLTDTRMSSEKGWSREALIRISAALDIACWDLIGKAANIPLYKLFGGYRNQIPVYVTCAYYRDGKDEIELRDELKKLIDIGHQSFKVKVGGLSIKEDAKRLETIRNEIGNQKDLMIDVNRAWDLKTAIEGVKEFKKFNPIWIEEPVRWEDDRRNLKLLSKQTDIPLSGGESEITIHGCRSMIEEEAIQILQFDCTMFGGFTNGKKLSALCEINHIDIAPHHDCYIHAPLVASSPSGRIVESFDDERDPIQSELFENQHKMSNGWIYLNENPGLGFDISEAALKKFGKLVYKKEGHHHHHH | soluble
MSSQNDYQSNGRYDNIYSQIDSEAKMSFSVDVLANIAIELQRGIGHQDRFQRLITTLRQVLECDASALLRYDSRQFIPLAIDGLAKDVLGRRFALEGHPRLEAIARAGDVVRFPADSELPDPYDGLIPGQESLKVHACVGLPLFAGQNLIGALTLDGMQPDQFDVFSDEELRLIAALAAGALSNALLIEQLESQNMLPGDATPFEAVKQTQMIGLSPGMTQLKKEIEIVAASDLNVLISGETGTGKELVAKAIHEASPRAVNPLVYLNCAALPESVAESELFGHVKGAFTGAISNRSGKFEMADNGTLFLDEIGELSLALQAKLLRVLQYGDIQRVGDDRCLRVDVRVLAATNRDLREEVLAGRFRADLFHRLSVFPLSVPPLRERGDDVILLAGYFCEQCRLRQGLSRVVLSAGARNLLQHYSFPGNVRELEHAIHRAVVLARATRSGDEVILEAQHFAFPEVTLPTPEVAAVPVVKQNLREATEAFQRETIRQALAQNHHNWAACARMLETDVANLHRLAKRLGLKD | not soluble
MKCGLEIHVQLDTRSKLFCRCPTDYQEAPPNTNICPVCLNQPGAKPYPPNRSALEGALKIALMLDCRINPEITYFMRKHYNYPDLPSGYQRTSIPVGLEGELNGVRIREVHIEEDPGQYKPDQGTVDFNRSGIPLIEIVTEPDMTSPEEARNFLRELIRVLEYSGCARGEGTMRADVNISLEGGKRVEIKNINSIKGAYKALKFEMIRQKNLLKRGVEVKQETRAFLESQMITVSMRLKEEAEDYRYIPDPDLPPMKFTDEVVEGLRERIPEAPHLKVKRFMEEYGLREEDARVLTSELELADAFEEVAGSIDPEFAALWMRDELKRVLYYNKISFAESMITPGDIIELLAMIRKKEITSKAAKKIIEEMPLNKKGPREIATEMGLIGIIDESEVIRAVEQAIRENPGAVEDYHAGKEAAINFLVGQVMRMTRGKAEPERTVELIKERI | soluble
MVVLKVTLLEGRPPEKKRELVRRLTEMASRLLGEPYEEVRVILYEVRRDQWAAGGVLFSDKEGT | soluble
EHRSIMNTLNFLESHYPVTAEDAYLLKTNYVFDVSISELFGWFIGDGRLVILPPNGEKSPQLCMDYIETYKVTHINFVPAMLHVFLEMAKDNKRFTEDGPLKYMMVAGEAFPKVLVKKAVSLFTNCRVENIYGPTEASIYAAYFGCGKGDIASHHTPIGKP | not soluble
MSLHQFLLFKIKVPTGSMMPTVEIGDQLFVTKIYNPNNIKRGDIVVFNSDELKEPLLKRVIGLPGEHVEIKSDGSVYINGNKLEEDYVKYQGGKTDMSFDVPSGKFLMLGDNRNNSDDARYWSNPYIDGKDIEAKAQLTVYPFDRIGFVKEGHHHHHH | soluble
MSLSLLSKLDVSPLQFQDPSKDGSKIINLNLDGSGDPLRLSELGESDYSNSIKVRDNEYVTYHLSNDYSVLTIYSMNDALQNKTINIKLPVQSTNKQHTSIVFVKDEAFNVEFILRNSIYLKISIPIDFIINNSSELNEDWFYVLQPYDFSVRKPHMLHRVSDNFSVVFLEDGGLVGLTSHGETDLEPILFNDNSYLQSITRLFSKSKHSKNSKVVSCSNYQSNFLIVLTEDCILKIWDLKKLILINEYNLFDVNNSDFIAGGLFDSCGNYLHLFNNLLTIYLPFTNGLFQVGTLDVDSSDKLTFQSKIVIPSNLPASSLWSLTDMRMINPLDLNLPETFLNIIVLWKSGTMSKLQILNILNESVDSYEWIDASNKDLEETRIESDIESSDFSKTLFKLTSRYPKAIVDRAIKVLEENGISIPLQEALDEEYLANLETLLRDIKGGCDEASSLTLYNDEIIVINCLQKYNYSIYKINCSLEKTYFDINDDSEGHHHHHH | soluble
MQGNTMYKFEVFKDKAGEFRFRFRASNGEIMFSSEGYKAKASVLNAIESIKKNSPGAETVDQTTATV | soluble
MGHHHHHHSHMANSAGSMANSAGSMAKTIKDIKAMVEQAAIQSIHKSSSNVKQIMVKTGQEHIVEDVYGAYDPLLYERTGQVKDAFITTNESNGVSLDNIREDDGKDIATVIETGQGYTYPDSYGYGYGNPRPFMKNTSETLRDGRLTAALKKDLKADGIKTD | not soluble
MGSDKIHHHHHHMHTMHIPSGDVLIPKPKLITEETDPLHIIKTRQKTHGRPVTIAGPMVRYSKLPFRQLCREYNVDIVYSPMILAREYVRNEHARISDLSTNNEDTPLIVQVGVNNVADLLKFVEMVAPYCDGIGINCGCPIKEQIREGIGCALIYNSDLLCSMVHAVKDKYGDKLRIETKIRIHEALDETVELCRKLCDAGVDWITIHGRTRRTRSSQPANLDAIKYIIENISDKNVPVIANGDCFKLSDLERITKYTGAHGVMAVRGLLSNPALFAGYTTCPWGCIEKFCYWALEFGGLPFQLAQHHLYCMLENMELKKSLLKKMMNLKNYISLIDWFNKTFEFKRYGEDGFGMGVEIPYKANSCVQRSASVVERQE | not soluble
MGSDKIHHHHHHVTILSPKAVPAPAASDAYGFGDRLTADFPSQINVDVTEVCNLACVHCPHPQFKKSVHYAGRMLDPALNDKMVEEVRDHGQGRVGYIRYTAAGEPMAHPAIFPMLAKAVARSGTTVSLTTNGMLLDEGRRARLLETGIHLIDISIDAFLPETYARVRVGGDLERVRGGVLRLMEGAARRVDPPKIVVSFVEQPFNQGETADFERFWKENGAAYVVIRRLHSCAGAAQDLAATLRVEQGETRRPCLYPWERIVLNPSGQLSFCPADWAHGAAIAEYRDTTIREVWQGPFYRALREAHLTNSYANHGFCGQCPDWASTRWPKQGRSYADMVQDFKETE | not soluble
